doi:10.1101/2022.11.17.516996v1 (bioRxiv, 2022)

Experiments:
[1] = system: caveolin-1 phosphorylation on tyrosine 14; test: Phospho-caveolin-1; assay type: cell-based, human; conditions: Src kinase inhibitor pretreatment before Aβ42; hCMEC/D3 cells; western blotting
[2] = system: polarized hCMEC/D3 cell monolayers; test: Energy dependent uptake of F-Aβ, flow cytometry with or without ATP depletion; assay type: in vitro ADME, human; conditions: 1 μM, 30 min; flow cytometry histograms
[3] = system: lysosomal compartment; conditions: from 25 nM in extracellular fluid; ref [58]; cited from earlier work

Row | Molecule | intra-endothelial accumulation in ATP depleted cells compared to control cells [2] | further results
1 | Cc1ccc(-c2nn(C(C)(C)C)c3ncnc(N)c23)cc1 [PP1] | – | effect of pretreatment on Aβ42 induced caveolin-1 phosphorylation [1]: block the phosphorylation
2 | F-Aβ40: fluorescently labeled soluble Aβ40 | significantly reduced | –
3 | F-Aβ42: fluorescently labeled soluble Aβ42 | significantly reduced | –
4 | amyloid beta peptide 42 [Aβ42] | – | concentration in the lysosomal compartment [3]: 2500 nM
